Experimental data reported in paper PMC7509555, “An In Vitro Study for Evaluating Permeability and Metabolism of Kurarinone” (Evidence-based Complementary and Alternative Medicine : eCAM, 2020).

Experiments:
Assay type in all cases: in vitro ADME, human
HLMs = experiment: Chemical inhibition study of kurarinone metabolism (P1 formation) in HLMs; conditions: kurarinone 20 μM in HLMs
From the text: HLMs were utilized as metabolic enzymes.

[1] = substrate: C=C(C)C(CC=C(C)C)Cc1c(O)cc(OC)c2c1O[C@H](c1ccc(O)cc1O)CC2=O; experiment: Enzyme kinetics of P1 formation from kurarinone in recombinant CYP1A2; conditions: other: recombinant CYP1A2; kurarinone 1–200 μM; 37.0 °C
Protocol: (§1) Samples were prepared in a total volume of 200 μL, containing 0.3 mg/mL protein in human liver microsomes or 15 nM protein in recombinant human supersomes, probe substrates or 50 μM kurarinone, 10 mM MgCl2, 10 mM glucose-6-phosphate, and 1 unit/mL of glucose-6-phosphate dehydrogenase. The reactions were activated by adding NADPH following preincubation at 37°C for 5 min. The reactions were maintained at 37°C for 1 h and terminated by adding 200 μL ice-cold acetonitrile. The supernatant (10 μL) collected from the samples that were centrifuged (20,000 g, 20 min, 4°C) was injected into the HPLC system for analysis. Control incubations devoid of NADPH or kurarinone were performed parallelly to ensure that the produced metabolites were NADPH- or kurarinone-dependent.
(§2) Various concentrations of kurarinone (1–200 μM) were incubated with RLMs, MLMs, PLMs, RAMs, CYP1A2, and CYP2D6 to estimate kinetic parameters. The rest of the other conditions remained the same as described in Section 2.3. […] The apparent Km and Vmax values were calculated from nonlinear regression analysis of experimental data according to the Michaelis–Menten equation, and the results were represented graphically by Eadie–Hofstee plots. All incubations were carried out as triplicate independent experiments, and kinetic constants were recorded as mean ± SD.

[2] = substrate: C=C(C)C(CC=C(C)C)Cc1c(O)cc(OC)c2c1O[C@H](c1ccc(O)cc1O)CC2=O; experiment: Enzyme kinetics of P1 formation from kurarinone in recombinant CYP2D6; conditions: other: recombinant CYP2D6; kurarinone 1–200 μM; 37.0 °C
Protocol: as §1, §2

Molecule: Cc1nc2c([nH]1)c(=O)n(C)c(=O)n2Cc1ccco1 [furafylline]
- effect of selective CYP inhibitor on formation of P1 from kurarinone (HLMs): remarkably inhibited

B1: CYP1A2 (Homo sapiens) (protein)
chain: MALSQSVPFSATELLLASAIFCLVFWVLKGLRPRVPKGLKSPPEPWGWPLLGHVLTLGKNPHLALSRMSQRYGDVLQIRIGSTPVLVLSRLDTIRQALVRQGDDFKGRPDLYTSTLITDGQSLTFSTDSGPVWAARRRLAQNALNTFSIASDPASSSSCYLEEHVSKEAKALISRLQELMAGPGHFDPYNQVVVSVANVIGAMCFGQHFPESSDEMLSLVKNTHEFVETASSGNPLDFFPILRYLPNPALQRFKAFNQRFLWFLQKTVQEHYQDFDKNSVRDITGALFKHSKKGPRASGNLIPQEKIVNLVNDIFGAGFDTVTTAISWSLMYLVTKPEIQRKIQKELDTVIGRERRPRLSDRPQLPYLEAFILETFRHSSFLPFTIPHSTTRDTTLNGFYIPKKCCVFVNQWQVNHDPELWEDPSEFRPERFLTADGTAINKPLSEKMMLFGMGKRRCIGEVLAKWEIFLFLAILLQQLEFSVPPGVKVDLTPIYGLTMKHARCEHVQARLRFSIN
notes: purchased BD Gentest Corp. (Woburn, MA, USA)
- Km [1]: 9.45 ± 2.11 µM
- kcat [1]: 2.45 ± 0.25 μmol·min^−1·nmol^−1 CYP

B2: CYP2D6 (Homo sapiens) (protein)
chain: MGLEALVPLAVIVAIFLLLVDLMHRRQRWAARYPPGPLPLPGLGNLLHVDFQNTPYCFDQLRRRFGDVFSLQLAWTPVVVLNGLAAVREALVTHGEDTADRPPVPITQILGFGPRSQGVFLARYGPAWREQRRFSVSTLRNLGLGKKSLEQWVTEEAACLCAAFANHSGRPFRPNGLLDKAVSNVIASLTCGRRFEYDDPRFLRLLDLAQEGLKEESGFLREVLNAVPVLLHIPALAGKVLRFQKAFLTQLDELLTEHRMTWDPAQPPRDLTEAFLAEMEKAKGNPESSFNDENLRIVVADLFSAGMVTTSTTLAWGLLLMILHPDVQRRVQQEIDDVIGQVRRPEMGDQAHMPYTTAVIHEVQRFGDIVPLGVTHMTSRDIEVQGFRIPKGTTLITNLSSVLKDEAVWEKPFRFHPEHFLDAQGHFVKPEAFLPFSAGRRACLGEPLARMELFLFFTSLLQHFSFSVPTGQPRPSHHGVFAFLVSPSPYELCAVPR
notes: as for B1
- Km [2]: 13.76 ± 3.09 µM
- kcat [2]: 2.78 ± 0.36 μmol·min^−1·nmol^−1 CYP
